For series [1], the target named is T1, WAgp5;thioredoxin (trx) (bacteriophage T7;Escherichia coli?, UniProt P00581;P0AA25 1-704;1-109, D5A;E7A;W579A|). In words: EMSA; similar to WTgp5; 20 mM Hepes pH 7.5, 1 mM EDTA, 100 mM KCl, 0.1 mM bME, 5% glycerol, 0.10 mg/mL BSA, 10 nM DNA, 25 C (30 min; 15 min + 15 min for supershift). As to conditions: protein: recombinant;recombinant; tags: ;; copies: 1;1; label: 5' Cy5 on primer; primer-template, 26 bp duplex, 32 nt 5' template overhang.

The target of series [2] is WTgp5 (T7 DNA polymerase, exo-);thioredoxin (trx) (bacteriophage T7;Escherichia coli?, UniProt P00581;P0AA25 1-704;1-109, D5A;E7A|). In words: EMSA; 20 mM Hepes pH 7.5, 1 mM EDTA, 100 mM KCl, 0.1 mM bME, 5% glycerol, 0.10 mg/mL BSA, 10 nM DNA, 25 C (30 min; 15 min + 15 min for supershift). As to conditions: protein: recombinant;recombinant, tags: ;, copies: 1;1, label: 5' Cy5 on primer. (A gel shift assay detects complexes by their altered migration in electrophoresis.)

In series [3] the target is T1, WAgp5;thioredoxin (trx). As to the kind of experiment: EMSA; 1 and 0 gap affinities similar; 20 mM Hepes pH 7.5, 1 mM EDTA, 100 mM KCl, 0.1 mM bME, 5% glycerol, 0.10 mg/mL BSA, 10 nM DNA, 25 C (30 min; 15 min + 15 min for supershift). To be noted: protein: recombinant;recombinant, tags: ;, copies: 1;1, label: 5' Cy5 on primer.
The target in series [4] is EQgp4 (T7 helicase);WTgp5 (T7 DNA polymerase, exo-);thioredoxin (trx) (bacteriophage T7;bacteriophage …, UniProt P03692;P00581;P0AA25 1-566;1-704;1-109, E343Q|D5A;E7A|). As to the kind of experiment: EMSA; EQgp4 titrated onto DNA pre-bound to WTgp5-trx (60-100 nM); 20 mM Hepes pH 7.5, 1 mM EDTA, 100 mM KCl, 0.1 mM bME, 5% glycerol, 0.10 mg/mL BSA, 10 nM DNA, 25 C (30 min; 15 min + 15 min for supershift). To be noted: protein: recombinant;recombinant;recombinant; tags: His tag removed (PreScission);;; chain copies: 6;1;1; label: 5' Cy5 on primer; fork 1:2 2:3, 2 nt ssDNA gap between primer end and fork.

For series [5], the target named is EQgp4 (T7 helicase);K3Dgp5;thioredoxin (trx) (bacteriophage T7;bacteriophage …, UniProt P03692;P00581;P0AA25 1-566;1-704;1-109, E343Q|D5A;E7A;K545D;K549D;K553D|). In words: EMSA; K3Dgp5-trx stimulates EQgp4 binding; 20 mM Hepes pH 7.5, 1 mM EDTA, 100 mM KCl, 0.1 mM bME, 5% glycerol, 0.10 mg/mL BSA, 10 nM DNA, 25 C (30 min; 15 min + 15 min for supershift). To be noted: protein: recombinant;recombinant;recombinant; tags: His tag removed (PreScission);;; chain copies: 6;1;1; label: 5' Cy5 on primer; fork 1:2 2:3, 2 nt ssDNA gap between primer end and fork.

The target in another series is EQgp4 (T7 helicase) (bacteriophage T7, UniProt P03692 1-566, E343Q). In words: EMSA; dTTP; 20 mM Hepes pH 7.5, 1 mM EDTA, 100 mM KCl, 0.1 mM bME, 5% glycerol, 0.10 mg/mL BSA, 10 nM DNA, 25 C (30 min; 15 min + 15 min for supershift). As to conditions: protein: recombinant; tags: His tag removed (PreScission); chain copies: 6; label: 5' Cy5 on primer; fork 1:2 2:3, 2 nt ssDNA gap between primer end and fork.

The target of a further series is EQgp4deltaC (bacteriophage T7, UniProt P03692 1-549, E343Q). As to the kind of experiment: EMSA; 20 mM Hepes pH 7.5, 1 mM EDTA, 100 mM KCl, 0.1 mM bME, 5% glycerol, 0.10 mg/mL BSA, 10 nM DNA, 25 C (30 min; 15 min + 15 min for supershift). To be noted: protein: recombinant; tags: His tag removed (PreScission); chain copies: 6; label: 5' Cy5 on primer; fork 1:2 2:3, 2 nt ssDNA gap between primer end and fork.

In general, Kd refers to the constant that tells how readily two partners part at equilibrium.

B1: Linear template-58nt (dsDNA)
DNA 1: GGATTATTTACATTGGCAGATTCACC
DNA 2: TTATTAGTTATGATATTCATGTATAGTTATATGGTGAATCTGCCAATGTAAATAATCC
As for B1, the binding result in the series with WAgp5;thioredoxin (trx) [1] is recorded as “binds”. For the same molecule, the Kd in series [2] (primer-template, 26 bp duplex, 32 nt 5' template overhang) is 53 nM.

B2: Fork template 1gap (mixed)
DNA 1: GGATTATTTACATTGGCAGATTCACC
DNA 2: TTATTAGTTATGATATTCATGTATAGTTATATGGTGAATCTGCCAATGTAAATAATCC
DNA 3: TATTCATGTATAGTTATGTAGAGTCCGAGATCCGCGCTGCCAGTCGGCAGAGCC
As for B2, the binding result in the series with WAgp5;thioredoxin (trx) [3] (fork 1:2 2:3, 1 nt ssDNA gap) is “binds”. Also, the dissociation constant Kd in series [2] (fork 1:2 2:3, 1 nt ssDNA gap) stood at 63 nM.

B3: Fork template 2gap (mixed)
DNA 1: GGATTATTTACATTGGCAGATTCACC
DNA 2: TTATTAGTTATGATATTCATGTATAGTTATATGGTGAATCTGCCAATGTAAATAATCC
DNA 3: TATTCATGTATAGTTATGTAGAGTTCCGAGATCCGCGCTGCCAGTCGGCAGAGCC
Consider B3, for which the Kd worked out at 8 nM in series [4]; 24 nM in the series with EQgp4 (T7 helicase); 30 nM with EQgp4deltaC; 36 nM in series [2] (fork 1:2 2:3, 2 nt ssDNA gap between primer end and fork). In series [5], the binding result was “binds”.

B4: Fork template 0gap (mixed)
DNA 1: GGATTATTTACATTGGCAGATTCACC
DNA 2: TTATTAGTTATGATATTCATGTATAGTTATATGGTGAATCTGCCAATGTAAATAATCC
DNA 3: TATTCATGTATAGTTATGTAGAGACCGAGATCCGCGCTGCCAGTCGGCAGAGCC
As to B4, the binding result with WAgp5;thioredoxin (trx) [3] (fork 1:2 2:3, no gap) is “binds”. Besides, in series [2] (fork 1:2 2:3, no gap), the Kd is 110 nM.

Values taken from PMC8835902, “DNA Polymerase-Parental DNA Interaction Is Essential for Helicase-Polymerase Coupling during Bacteriophage T7 DNA Replication”.
